Data taken from the supplement of paper PMC11316812.
± gives the standard deviation of the averaged measurements.

Experiments:
MCF7 = assay: percentage of EdU-negative (G0-arrested) nuclei per well, 72 h; higher = more G0 arrest; conditions: reference: sequence is the full UniProt precursor, the tested protein was the secreted form or ectodomain
hTERT-HMEC = assay: as above; conditions: reference: sequence is the full UniProt precursor, the tested protein was the secreted form or ectodomain
[1] = protein concentration 0.0224225 µM
[2] = protein concentration 0.0243425 µM
[3] = protein concentration 0.028825 µM
[4] = protein concentration 0.224225 µM
[5] = protein concentration 0.243425 µM
[6] = protein concentration 0.28825 µM
[7] = protein concentration 0.0225 µM
[8] = protein concentration 0.0095 µM
[9] = protein concentration 0.0292375 µM
[10] = protein concentration 0.292375 µM
[11] = protein concentration 0.02225 µM
[12] = protein concentration 0.2225 µM
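Further: secreted proteins added to cultured cells, EdU pulse at the end, nuclei found by Hoechst imaging, EdU status from nuclear versus surrounding ring intensity ratio, PBS as neutral control.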

MRACISLVLAVLCGLAWAGKIESCASRCNEKFNRDAACQCDRRCLWHGNCCEDYEHLCTEDHKESEPLPQLEEETEEALASNLYSAPTSCQGRCYEAFDKHHQCHCNARCQEFGNCCKDFESLCSDHEVSHSSDAITKEEIQSISEKIYRADTNKAQKEDIVLNSQNCISPSETRNQVDRCPKPLFTYVNEKLFSKPTYAAFINLLNNYQRATGHGEHFSAQELAEQDAFLREIMKTAVMKELYSFLHHQNRYGSEQEFVDDLKNMWFGLYSRGNEEGDSSGFEHVFSGEVKKGKVTGFHNWIRFYLEEKEGLVDYYSHIYDGPWDSYPDVLAMQFNWDGYYKEVGSAFIGSSPEFEFALYSLCFIARPGKVCQLSLGGYPLAVRTYTWDKSTYGNGKKYIATAYIVSST
percentage of EdU-negative (MCF7; [1]): 25.11 ± 0.21% | percentage of EdU-negative (MCF7; [2]): 25.2 ± 1.4% | percentage of EdU-negative (MCF7; [3]): 24.16 ± 0.045% | percentage of EdU-negative (MCF7; [4]): 28.6 ± 2.5% | percentage of EdU-negative (MCF7; [5]): 27.3 ± 0.39% | percentage of EdU-negative (MCF7; [6]): 27.382 ± 0.0011% | percentage of EdU-negative (hTERT-HMEC; [1]): 5.37 ± 0.81% | percentage of EdU-negative (hTERT-HMEC; [2]): 4.65 ± 0.23% | percentage of EdU-negative (hTERT-HMEC; [3]): 5.03 ± 0.15% | percentage of EdU-negative (hTERT-HMEC; [4]): 5.94 ± 0.48% | percentage of EdU-negative (hTERT-HMEC; [5]): 8.43 ± 1.2% | percentage of EdU-negative (hTERT-HMEC; [6]): 6.74 ± 0.95%

MRNSYRFLASSLSVVVSLLLIPEDVCEKIIGGNEVTPHSRPYMVLLSLDRKTICAGALIAKDWVLTAAHCNLNKRSQVILGAHSITREEPTKQIMLVKKEFPYPCYDPATREGDLKLLQLMEKAKINKYVTILHLPKKGDDVKPGTMCQVAGWGRTHNSASWSDTLREVNITIIDRKVCNDRNHYNFNPVIGMNMVCAGSLRGGRDSCNGDSGSPLLCEGVFRGVTSFGLENKCGDPRGPGVYILLSKKHLNWIIMTIKGAV
percentage of EdU-negative (MCF7; [7]): 27.7 ± 2.1% | percentage of EdU-negative (MCF7; protein concentration 0.225 µM): 30.8 ± 3.2% | percentage of EdU-negative (hTERT-HMEC; [7]): 5.3 ± 0.55% | percentage of EdU-negative (hTERT-HMEC; protein concentration 0.225 µM): 5.96 ± 1.8%

MKFQGPLACLLLALCLGSGEAGPLQSGEESTGTNIGEALGHGLGDALSEGVGKAIGKEAGGAAGSKVSEALGQGTREAVGTGVRQVPGFGVADALGNRVGEAAHALGNTGHEIGRQAEDVIRHGADAVRGSWQGVPGHNGAWETSGGHGIFGSQGGLGGQGQGNPGGLGTPWVHGYPGNSAGSFGMNPQGAPWGQGGNGGPPNFGTNTQGAVAQPGYGSVRASNQNEGCTNPPPSGSGGGSSNSGGGSGSQSGSSGSGSNGDNNNGSSSGGSSSGSSSGGSSGGSSGGSSGNSGGSRGDSGSESSWGSSTGSSSGNHGGSGGGNGHKPGCEKPGNEARGSGESGIQNSETSPGMFNFDTFWKNFKSKLGFINWDAINKNQVPPPSTRALLYFSRLWEDFKQNTPFLNWKAIIEGADASSLQKRAGRDDQNYNYNQHAYPTAYGGKYSVKTPAKGGVSPSSSASRVQPGLLQWVKFW [Q6E0U4]
percentage of EdU-negative (MCF7; [8]): 27.8 ± 1.4% | percentage of EdU-negative (MCF7; protein concentration 0.095 µM): 27.7 ± 1.7% | percentage of EdU-negative (hTERT-HMEC; [8]): 4.68 ± 0.29% | percentage of EdU-negative (hTERT-HMEC; protein concentration 0.095 µM): 24.6 ± 4.2%

MDLWQLLLTLALAGSSDAFSGSEATAAILSRAPWSLQSVNPGLKTNSSKEPKFTKCRSPERETFSCHWTDEVHHGTKNLGPIQLFYTRRNTQEWTQEWKECPDYVSAGENSCYFNSSFTSIWIPYCIKLTSNGGTVDEKCFSVDEIVQPDPPIALNWTLLNVSLTGIHADIQVRWEAPRNADIQKGWMVLEYELQYKEVNETKWKMMDPILTTSVPVYSLKVDKEYEVRVRSKQRNSGNYGEFSEVLYVTLPQMSQFTCEEDFYFPWLLIIIFGIFGLTVMLFVFLFSKQQRIKMLILPPVPVPKIKGIDPDLLKEGKLEEVNTILAIHDSYKPEFHSDDSWVEFIELDIDEPDEKTEESDTDRLLSSDHEKSHSNLGVKDGDSGRTSCCEPDILETDFNANDIHEGTSEVAQPQRLKGEADLLCLDQKNQNNSPYHDACPATQQPSVIQAEKNKPQPLPTEGAESTHQAAHIQLSNPSSLSNIDFYAQVSDITPAGSVVLSPGQKNKAGMSQCDMHPEMVSLCQENFLMDNAYFCEADAKKCIPVAPHIKVESHIQPSLNQEDIYITTESLTTAAGRPGTGEHVPGSEMPVPDYTSIHIVQSPQGLILNATALPLPDKEFLSSCGYVSTDQLNKIMP
percentage of EdU-negative (MCF7; [9]): 25 ± 3.3% | percentage of EdU-negative (MCF7; [10]): 24.5 ± 1.6% | percentage of EdU-negative (hTERT-HMEC; [9]): 4.42 ± 0.8% | percentage of EdU-negative (hTERT-HMEC; [10]): 6.44 ± 1.3%

MDPGLQQALNGMAPPGDTAMHVPAGSVASHLGTTSRSYFYLTTATLALCLVFTVATIMVLVVQRTDSIPNSPDNVPLKGGNCSEDLLCILKRAPFKKSWAYLQVAKHLNKTKLSWNKDGILHGVRYQDGNLVIQFPGLYFIICQLQFLVQCPNNSVDLKLELLINKHIKKQALVTVCESGMQTKHVYQNLSQFLLDYLQVNTTISVNVDTFQYIDTSTFPLENVLSIFLYSNSD
percentage of EdU-negative (MCF7; [7]): 28 ± 0.99% | percentage of EdU-negative (MCF7; protein concentration 0.225 µM): 27.5 ± 1.8% | percentage of EdU-negative (hTERT-HMEC; [7]): 4.46 ± 0.73% | percentage of EdU-negative (hTERT-HMEC; protein concentration 0.225 µM): 6.03 ± 0.4%

MYLSRFLSIHALWVTVSSVMQPYPLVWGHYDLCKTQIYTEEGKVWDYMACQPESTDMTKYLKVKLDPPDITCGDPPETFCAMGNPYMCNNECDASTPELAHPPELMFDFEGRHPSTFWQSATWKEYPKPLQVNITLSWSKTIELTDNIVITFESGRPDQMILEKSLDYGRTWQPYQYYATDCLDAFHMDPKSVKDLSQHTVLEIICTEEYSTGYTTNSKIIHFEIKDRFAFFAGPRLRNMASLYGQLDTTKKLRDFFTVTDLRIRLLRPAVGEIFVDELHLARYFYAISDIKVRGRCKCNLHATVCVYDNSKLTCECEHNTTGPDCGKCKKNYQGRPWSPGSYLPIPKGTANTCIPSISSIGNCECFGHSNRCSYIDLLNTVICVSCKHNTRGQHCELCRLGYFRNASAQLDDENVCIECYCNPLGSIHDRCNGSGFCECKTGTTGPKCDECLPGNSWHYGCQPNVCDNELLHCQNGGTCHNNVRCLCPAAYTGILCEKLRCEEAGSCGSDSGQGAPPHGSPALLLLTTLLGTASPLVF [Q9Y2I2]
percentage of EdU-negative (MCF7; [11]): 26.06 ± 0.23% | percentage of EdU-negative (MCF7; [12]): 28.6 ± 3.7% | percentage of EdU-negative (hTERT-HMEC; [11]): 5.38 ± 0.34% | percentage of EdU-negative (hTERT-HMEC; [12]): 5.84 ± 1.4%

MGPLINRCKKILLPTTVPPATMRIWLLGGLLPFLLLLSGLQRPTEGSEVAIKIDFDFAPGSFDDQYQGCSKQVMEKLTQGDYFTKDIEAQKNYFRMWQKAHLAWLNQGKVLPQNMTTTHAVAILFYTLNSNVHSDFTRAMASVARTPQQYERSFHFKYLHYYLTSAIQLLRKDSIMENGTLCYEVHYRTKDVHFNAYTGATIRFGQFLSTSLLKEEAQEFGNQTLFTIFTCLGAPVQYFSLKKEVLIPPYELFKVINMSYHPRGDWLQLRSTGNLSTYNCQLLKASSKKCIPDPIAIASLSFLTSVIIFSKSRV
percentage of EdU-negative (MCF7; [7]): 23.9 ± 0.46% | percentage of EdU-negative (MCF7; protein concentration 0.225 µM): 27.2 ± 0.8% | percentage of EdU-negative (hTERT-HMEC; [7]): 5.08 ± 0.63% | percentage of EdU-negative (hTERT-HMEC; protein concentration 0.225 µM): 6.69 ± 0.27%
